Read-outs that look alike come from different tables or passages of the source. Each block holds one binder with its values, some of them ahead of it.
Experiments:
[1] = target: TNFα (Tumor Necrosis Factor alpha) (UniProt P01375 77-233); assay: SPR (Biacore 3000, 25 °C): compound captured to about 1,000 RU on a CM5 chip with the mouse antibody capture kit, TNFα injected for 120 s, 300 s dissociation
Protocol: (§1) Surface plasmon resonance (SPR) experiments were carried out on a Biacore 3000 (Cytiva). A CM5 chip for capture of the compounds was prepared according to the instructions of the mouse antibody capture kit (Cytiva, #BR100838). VGFR(½)-mFc-FSD1, TNFR2-mFc-FSD1, VGFR(½)/FST291-mFc, TNFR2/FST291-mFc, VGFR(½)-hFc (Aflibercept), TNFR2-hFc (Etanercept), and FST315dHBS-mFc (SEQ ID NO: 30, SEQ ID NO: 31) were captured to approximately 1,000 RU (Resonance Units). TNFα (R&D Systems, #210-TA-005,) or VEGF (R&D Systems, #293-VE-010) were then injected for 120 s followed by a 300 s dissociation phase. At the end of each binding cycle, non-covalently attached molecules were removed from both surfaces by a 180 s regeneration with 10 mM glycine, pH 1.7. All proteins were diluted in running buffer ([…], pH 7.5, […], 2 mM CaCl₂) and 0.05% Tween 20). A flow rate of 30 μl/min was used in all steps of the experiments. Binding analysis was performed at 25° C., and data were collected at a rate of 1 Hz. Using the BIAevaluation 4.1.1 software (Cytiva), recorded signals were referenced; the signal from the in-line reference flow cell was subtracted as was the signal from a blank run (0 nM analyte).

activin A [2] = target: T1, activin A (human, UniProt P08476 311-426); assay: cell-based or functional assay
T1 sequence: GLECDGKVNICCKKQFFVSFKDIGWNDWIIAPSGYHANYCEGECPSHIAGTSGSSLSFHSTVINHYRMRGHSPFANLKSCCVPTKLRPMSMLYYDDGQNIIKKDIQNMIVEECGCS

myostatin [3] = target: T2, myostatin (Homo sapiens (Human), UniProt O14793 267-375); assay: cell-based or functional assay
T2 sequence: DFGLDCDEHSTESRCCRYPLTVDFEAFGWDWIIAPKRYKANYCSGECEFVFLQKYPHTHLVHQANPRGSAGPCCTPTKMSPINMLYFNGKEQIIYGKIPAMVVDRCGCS

[4] = target: T3, GDF11 (Growth Differentiation Factor 11) (Homo sapiens (Human), UniProt O95390 299-407); assay: cell-based or functional assay
T3 sequence: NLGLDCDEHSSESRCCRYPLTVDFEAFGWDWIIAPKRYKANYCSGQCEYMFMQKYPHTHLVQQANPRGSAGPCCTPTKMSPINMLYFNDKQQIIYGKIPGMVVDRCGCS

activin A [5] = target: T1, activin A; assay: cell-based or functional assay; remark: listed apart in the source
myostatin [6] = target: T2, myostatin; assay: cell-based or functional assay; remark: listed apart in the source
[7] = target: T3, GDF11 (Growth Differentiation Factor 11); assay: cell-based or functional assay; remark: listed apart in the source
[8] = target: VEGF (Vascular Endothelial Growth Factor) (UniProt P15692-4 27-191); assay: SPR (Biacore 3000, 25 °C): compound captured to about 1,000 RU on a CM5 chip with the mouse antibody capture kit, VEGF injected for 120 s, 300 s dissociation
Sequence of VEGF (Vascular Endothelial Growth Factor) (P15692 other isoform, or with tags, fused parts or gaps limits assumed): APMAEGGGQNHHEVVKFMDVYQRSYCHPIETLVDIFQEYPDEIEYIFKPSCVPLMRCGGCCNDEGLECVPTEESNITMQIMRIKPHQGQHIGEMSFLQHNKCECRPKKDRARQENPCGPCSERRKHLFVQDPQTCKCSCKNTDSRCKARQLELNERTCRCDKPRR
Protocol: as §1

activin A [9] = target: T1, activin A; assay: cell-based or functional assay; remark: listed apart in the source
myostatin [10] = target: T2, myostatin; assay: cell-based or functional assay; remark: listed apart in the source
[11] = target: T3, GDF11 (Growth Differentiation Factor 11); assay: cell-based or functional assay; remark: listed apart in the source
myostatin [12] = target: T2, myostatin; assay: cell-based or functional assay; remark: listed apart in the source
[13] = target: T3, GDF11 (Growth Differentiation Factor 11); assay: cell-based or functional assay; remark: listed apart in the source
activin A [14] = target: T1, activin A; assay: cell-based or functional assay; remark: listed apart in the source

Sequence of TNFα (Tumor Necrosis Factor alpha) (P01375 77-233 limits assumed): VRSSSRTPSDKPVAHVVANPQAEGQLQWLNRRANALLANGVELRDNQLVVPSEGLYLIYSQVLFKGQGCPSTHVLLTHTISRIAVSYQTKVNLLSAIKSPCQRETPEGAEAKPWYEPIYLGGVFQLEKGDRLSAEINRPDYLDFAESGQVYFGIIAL

- IC50, neutralisation of 1 ng/mL activin A (pSmad2/3 luciferase reporter, HEK293 cells) (activin A [2]): 53 pM
- IC50, neutralisation of 1 ng/mL myostatin (pSmad2/3 luciferase reporter, HEK293 cells) (myostatin [3]): 210 pM
- IC50, neutralisation of 1 ng/mL GDF11 (pSmad2/3 luciferase reporter, HEK293 cells) [4]: 119 pM
B2: native full-length follistatin315 (FST315) (other)
chain: GNCWLRQAKNGRCQVLYKTELSKEECCSTGRLSTSWTEEDVNDNTLFKWMIFNGGAPNCIPCKETCENVDCGPGKKCRMNKKNKPRCVCAPDCSNITWKGPVCGLDGKTYRNECALLKARCKEQPELEVQYQGRCKKTCRDVFCPGSSTCVVDQTNNAYCVTCNRICPEPASSEQYLCGNDGVTYSSACHLRKATCLLGRSIGLAYEGKCIKAKSCEDIQCTGGKKCLWDFKVGRGRCSLCDELCPDSKSDEPVCASDNATYASECAMKEAACSSGVLLEVKHSGSCNSISEDTEEEEEDEDQDYSFPISSILEW

- IC50, neutralisation of 1 ng/mL activin A (pSmad2/3 luciferase reporter, HEK293 cells) [cont. B] (activin A [5]): 584 pM
- IC50, neutralisation of 1 ng/mL myostatin (pSmad2/3 luciferase reporter, HEK293 cells) [cont. B] (myostatin [6]): 1640 pM
- IC50, neutralisation of 1 ng/mL GDF11 (pSmad2/3 luciferase reporter, HEK293 cells) [cont. B] [7]: 3450 pM
- binding result [8]: binds
B3: VGFR(½)/FST291-mFc (Fc fusion)
chain 1: GNCWLRQAKNGRCQVLYKTELSKEECCSTGRLSTSWTEEDVNDNTLFKWMIFNGGAPNCIPCKETCENVDCGPGKKCRMNKKNKPRCVCAPDCSNITWKGPVCGLDGKTYRNECALLKARCKEQPELEVQYQGRCKKTCRDVFCPGSSTCVVDQTNNAYCVTCNRICPEPASSEQYLCGNDGVTYSSACHLRKATCLLGRSIGLAYEGKCIKAKSCEDIQCTGGKKCLWDFKVGRGRCSLCDELCPDSKSDEPVCASDNATYASECAMKEAACSSGVLLEVKHSGSCNSISPRGPTIKPCPPCKCPAPNLLGGPSVFIFPPKIKDVLMISLSPIVTCVVVDVSEDDPDVQISWFVNNVEVHTAQTQTHREDYNSTLRVVSALPIQHQDWMSGKEFKCKVNNKDLPAPIERTISKPKGSVRAPQVYVLPPPEEEMTEKQVTLTCMVTDFMPEDIYVEWTNNGKTELNYKNTEPVLDSDGSYFMYSWLRVEKKNWVERNSYSCSVVHEGLHNHHTTKSFSRTPGK
chain 2: SDTGRPFVEMYSEIPEIIHMTEGRELVIPCRVTSPNITVTLKKFPLDTLIPDGKRIIWDSRKGFIISNATYKEIGLLTCEATVNGHLYKTNYLTHRQTNTIIDVVLSPSHGIELSVGEKLVLNCTARTELNVGIDFNWEYPSSKHQHKKLVNRDLKTQSGSEMKKFLSTLTIDGVTRSDQGLYTCAASSGLMTKKNSTFVRVHEKPRGPTIKPCPPCKCPAPNLLGGPSVFIFPPKIKDVLMISLSPIVTCVVVDVSEDDPDVQISWFVNNVEVHTAQTQTHREDYNSTLRVVSALPIQHQDWMSGKEFKCKVNNKDLPAPIERTISKPKGSVRAPRVYVLPPPEEEMTKKQVTLTCMVTDFMPEDIYVEWTNNGKTELNYKNTEPVLVSDGSYTMYSKLRVEKKNWVERNSYSCSVVHEGLHNHHTTKSFSRTPGKLVPRGSHHHHHH
notes: Fc heterodimer (knobs-in-holes, murine IgG2A); also called VGFR(1/2)/FST291-mFc; type 4 design compound

- IC50, neutralisation of 1 ng/mL myostatin (pSmad2/3 luciferase reporter, HEK293 cells) [cont. B] (myostatin [12]): 37 nM
- IC50, neutralisation of 1 ng/mL GDF11 (pSmad2/3 luciferase reporter, HEK293 cells) [cont. C] [13]: 21 nM
- IC50, neutralisation of 1 ng/mL activin A (pSmad2/3 luciferase reporter, HEK293 cells) (activin A [14]): 18 nM
- binding result [8]: binds
B5: VGFR(½)-mFc-FSD1 (Fc fusion)
chain: SDTGRPFVEMYSEIPEIIHMTEGRELVIPCRVTSPNITVTLKKFPLDTLIPDGKRIIWDSRKGFIISNATYKEIGLLTCEATVNGHLYKTNYLTHRQTNTIIDVVLSPSHGIELSVGEKLVLNCTARTELNVGIDFNWEYPSSKHQHKKLVNRDLKTQSGSEMKKFLSTLTIDGVTRSDQGLYTCAASSGLMTKKNSTFVRVHEKPRGPTIKPCPPCKCPAPNLLGGPSVFIFPPKIKDVLMISLSPIVTCVVVDVSEDDPDVQISWFVNNVEVHTAQTQTHREDYNSTLRVVSALPIQHQDWMSGKEFKCKVNNKDLPAPIERTISKPKGSVRAPQVYVLPPPEEEMTKKQVTLTCMVTDFMPEDIYVEWTNNGKTELNYKNTEPVLDSDGSYFMYSKLRVEKKNWVERNSYSCSVVHEGLHNHHTTKSFSRTPGKETCENVDCGPGKKCRMNKKNKPRCVCAPDCSNITWKGPVCGLDGKTYRNECALLKARCKEQPELEVQYQGRCK
notes: expressed in CHO cells; also called VGFR(1/2)-mFc-FSD1; type 2 design compound

Second part, the binder before the results:

B1: TNFR2-mFc-FSD1 (Fc fusion)
chain: LPAQVAFTPYAPEPGSTCRLREYYDQTAQMCCSKCSPGQHAKVFCTKTSDTVCDSCEDSTYTQLWNWVPECLSCGSRCSSDQVETQACTREQNRICTCRPGWYCALSKQEGCRLCAPLRKCRPGFGVARPGTETSDVVCKPCAPGTFSNTTSSTDICRPHQICNVVAIPGNASMDAVCTSTSPTRSMAPGAVHLPQPVSTRSQHTQPTPEPSTAPSTSFLLPMGPSPPAEGSTGDPRGPTIKPCPPCKCPAPNLLGGPSVFIFPPKIKDVLMISLSPIVTCVVVDVSEDDPDVQISWFVNNVEVHTAQTQTHREDYNSTLRVVSALPIQHQDWMSGKEFKCKVNNKDLPAPIERTISKPKGSVRAPQVYVLPPPEEEMTKKQVTLTCMVTDFMPEDIYVEWTNNGKTELNYKNTEPVLDSDGSYFMYSKLRVEKKNWVERNSYSCSVVHEGLHNHHTTKSFSRTPGKETCENVDCGPGKKCRMNKKNKPRCVCAPDCSNITWKGPVCGLDGKTYRNECALLKARCKEQPELEVQYQGRCK
notes: expressed in CHO cells; also called type 2 design compound
- binding result [1]: binds

B4: TNFR2/FST291-mFc (Fc fusion)
chain 1: B3 chain 1
chain 2: LPAQVAFTPYAPEPGSTCRLREYYDQTAQMCCSKCSPGQHAKVFCTKTSDTVCDSCEDSTYTQLWNWVPECLSCGSRCSSDQVETQACTREQNRICTCRPGWYCALSKQEGCRLCAPLRKCRPGFGVARPGTETSDVVCKPCAPGTFSNTTSSTDICRPHQICNVVAIPGNASMDAVCTSTSPTRSMAPGAVHLPQPVSTRSQHTQPTPEPSTAPSTSFLLPMGPSPPAEGSTGDPRGPTIKPCPPCKCPAPNLLGGPSVFIFPPKIKDVLMISLSPIVTCVVVDVSEDDPDVQISWFVNNVEVHTAQTQTHREDYNSTLRVVSALPIQHQDWMSGKEFKCKVNNKDLPAPIERTISKPKGSVRAPRVYVLPPPEEEMTKKQVTLTCMVTDFMPEDIYVEWTNNGKTELNYKNTEPVLVSDGSYTMYSKLRVEKKNWVERNSYSCSVVHEGLHNHHTTKSFSRTPGKLVPRGSHHHHHH
notes: Fc heterodimer (knobs-in-holes, murine IgG2A); also called type 4 design compound
- IC50, neutralisation of 1 ng/mL activin A (pSmad2/3 luciferase reporter, HEK293 cells) [cont. C] (activin A [9]): 525 pM
- IC50, neutralisation of 1 ng/mL myostatin (pSmad2/3 luciferase reporter, HEK293 cells) [cont. C] (myostatin [10]): 1610 pM
- IC50, neutralisation of 1 ng/mL GDF11 (pSmad2/3 luciferase reporter, HEK293 cells) [cont. C] [11]: 4490 pM
- binding result [1]: binds

Source: patent US20260209291A1 (KAMINO, published 2026)
